Numbering of substitutions follows the chain as printed.
B1: aCD3-hVH1/VL5 (antibody, human IgG4, V domains shown)
VH: EVQLVESGGGLVQPGGSLRLSCAASGFTFNTYAMNWVRQAPGKGLEWVSRIRSKYNNYATYYADSVKDRFTISRDDSKNTLYLQMNSLRAEDTAVYYCVRHGNFGNSYVSWFAYWGQGTLVTVSS
VL: QAVVTQEPSLTVSPGGTVTLTCRSSTGAVTTSNYANWVQEKPGQAPRGLIGGTNKRAPWTPARFSGSLLGGKAALTITGAQAEDEAEYYCVLWYSNLWVFGGGTKLTVL
notes: also called humanized anti-CD3 antibody hVH1/VL5
B2: aCD3-hVH9/VL1 (antibody, human IgG4, V domains shown)
VH: B1 VH with Q39K, S49G, T80S, R89K, A90T
VL: B1 VL with E40Q, I77L, T78S, A82P, V91A
notes: also called humanized anti-CD3 antibody hVH9/VL1
B3: aCD3-hVH8/VL1 (antibody, human IgG4, V domains shown)
VH: B1 VH with Q39K, S49G, T80S, R89K, A90T, V99A
VL: B1 VL with E40Q, I77L, T78S, A82P, V91A
notes: also called humanized anti-CD3 antibody hVH8/VL1
B4: aCD3-hVH9/VL3 (antibody, human IgG4, V domains shown)
VH: B1 VH with Q39K, S49G, T80S, R89K, A90T
VL: B1 VL with Q1E, R23E, T26D, R56E, I77L, T78S, A82P, V91A
notes: also called humanized anti-CD3 antibody hVH9/VL3
B5: aCD3-hVH8/VL5 (antibody, human IgG4, V domains shown)
VH: B1 VH with Q39K, S49G, T80S, R89K, A90T, V99A
VL: B1 VL
notes: also called humanized anti-CD3 antibody hVH8/VL5
B6: BCMA × CD3 κλ003 (bispecific antibody, human IgG4 S228P, kappa, lambda)
light 1: DIVLTQSPASLAVSPGQRATITCRASKSVSTSGYSYMHWYQKKPGQPPKLLIYLASNLESGVPARFSGSGSGTDFTLTINPVEAEDTANYYCQHSRELPWTFGQGTKVEIKRTVAAPSVFIFPPSDEQLKSGTASVVCLLNNFYPREAKVQWKVDNALQSGNSQESVTEQDSKDSTYSLSSTLTLSKADYEKHKVYACEVTHQGLSSPVTKSFNRGEC
heavy 1: QVQLVQSGSELKKPGASVKVSCKASGYIFTNFGMNWVREAPGQGLEWMGWINTYTGEQIYADGFTGRFVFSLDTSASTAYLQISSLKAEDTAVYFCARGEIYYGYDVGFVYWGQGTLVTVSSASTKGPSVFPLAPCSRSTSESTAALGCLVKDYFPEPVTVSWNSGALTSGVHTFPAVLQSSGLYSLSSVVTVPSSSLGTKTYTCNVDHKPSNTKVDKRVESKYGPPCPPCPAPEFEGGPSVFLFPPKPKDTLMISRTPEVTCVVVDVSQEDPEVQFNWYVDGVEVHNAKTKPREEQFNSTYRVVSVLTVLHQDWLNGKEYKCKVSNKGLASSIEKTISKAKGQPREPQVCTLPPSQEEMTKNQVSLSCAVKGFYPSDIAVEWESNGQPENNYKTTPPVLDSDGSFFLVSKLTVDKSRWQEGNVFSCSVMHEALHNHYTQKSLSLSLGK
light 2: QAVVTQEPSLTVSPGGTVTLTCRSSTGAVTTSNYANWVQEKPGQAPRGLIGGTNKRAPWTPARFSGSLLGGKAALTITGAQAEDEAEYYCVLWYSNLWVFGGGTKLTVLGQPKAAPSVTLFPPSSEELQANKATLVCLISDFYPGAVTVAWKADSSPVKAGVETTTPSKQSNNKYAASSYLSLTPEQWKSHRSYSCQVTHEGSTVEKTVAPTECS
heavy 2: EVQLVESGGGLVQPGGSLRLSCAASGFTFNTYAMNWVRKAPGKGLEWVGRIRSKYNNYATYYADSVKDRFTISRDDSKNSLYLQMNSLKTEDTAVYYCVRHGNFGNSYVSWFAYWGQGTLVTVSSASTKGPSVFPLAPCSRSTSESTAALGCLVKDYFPEPVTVSWNSGALTSGVHTFPAVLQSSGLYSLSSVVTVPSSSLGTKTYTCNVDHKPSNTKVDKRVESKYGPPCPPCPAPEFEGGPSVFLFPPKPKDTLMISRTPEVTCVVVDVSQEDPEVQFNWYVDGVEVHNAKTKPREEQFNSTYRVVSVLTVLHQDWLNGKEYKCKVSNKGLASSIEKTISKAKGQPREPQVYTLPPCQEEMTKNQVSLWCLVKGFYPSDIAVEWESNGQPENNYKTTPPVLDSDGSFFLYSKLTVDKSRWQEGNVFSCSVMHEALHNHYTQKSLSLSLGK
notes: also called BCMA×CD3 κλ bispecific antibody
B7: BCMA × CD3 κλ005 (bispecific antibody)
light 1: B6 light 1
heavy 1: B6 heavy 1 with A76V
light 2: B6 light 2
heavy 2: B6 heavy 2
notes: as for B6
B8: BCMA × CD3 κλ006 (bispecific antibody)
light 1: B6 light 1 with S30T, M37I, N57D, S60A
heavy 1: B6 heavy 1 with A76V
light 2: B6 light 2
heavy 2: B6 heavy 2
notes: as for B6

Assays:
[1] = biological target: T1, human CD3 on T cells (Jurkat cells; human peripheral blood CD4+ and CD8+ T-cells) (human, UniProt P07766 23-207); assay: flow cytometry on Jurkat cells
T1 construct: whole, on cells; also called CD4T; CD4 + T
Protocol: Jurkat cells in logarithmic growth phase were blocked with 3% BSA for 30 min, added to 96-well U-plate at 5×10^4 cells per well, centrifuged to discard the supernatant, and added with 50 μL of gradient diluted antibody (antibody concentration:from 30 μg/mL, with 3-fold dilution for 5 gradients) per well, and incubated at 4° C. for 1 hour. After washing off the primary antibody, a 1:300 dilution of Alexa Fluro647 labeled goat anti-human IgG Fc (Jackson ImmunoResearch, 109-606-170) was added to the secondary antibody, incubated for 45 min at 4° C., and, after washing, resuspended in 50 μL of PBS per well for FACS (iQue, intellicyt) detection.

[2] = biological target: T2, human CD3εγ-Fc heterodimer (human); assay: ELISA, coated human CD3εγ recombinant protein
T2 construct: also called human CD3εγ recombinant protein; human CD3εγ protein
T2 chain 1: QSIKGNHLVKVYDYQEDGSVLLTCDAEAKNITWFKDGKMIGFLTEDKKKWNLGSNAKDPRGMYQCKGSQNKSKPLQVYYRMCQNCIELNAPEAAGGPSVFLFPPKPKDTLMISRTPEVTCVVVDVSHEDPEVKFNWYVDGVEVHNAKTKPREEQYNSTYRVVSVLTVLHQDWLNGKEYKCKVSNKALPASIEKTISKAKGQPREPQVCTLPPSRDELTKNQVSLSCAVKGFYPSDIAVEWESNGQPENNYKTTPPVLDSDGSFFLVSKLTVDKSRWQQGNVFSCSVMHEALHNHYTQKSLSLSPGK
T2 chain 2: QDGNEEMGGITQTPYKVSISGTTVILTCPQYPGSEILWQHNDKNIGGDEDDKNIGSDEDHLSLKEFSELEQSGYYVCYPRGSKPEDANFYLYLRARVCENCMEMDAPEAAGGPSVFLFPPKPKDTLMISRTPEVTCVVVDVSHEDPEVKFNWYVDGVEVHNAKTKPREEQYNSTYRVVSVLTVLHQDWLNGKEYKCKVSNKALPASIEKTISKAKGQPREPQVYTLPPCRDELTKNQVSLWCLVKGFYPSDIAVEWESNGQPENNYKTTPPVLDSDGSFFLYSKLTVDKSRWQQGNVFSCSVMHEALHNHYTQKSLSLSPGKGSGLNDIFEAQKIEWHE
Protocol: Human CD3εγ recombinant protein was coated overnight at 4° C. After blocking with 2% skim milk, different dilutions of CD3 antibody were added to each well and incubated for 1 hour. After the secondary antibody was developed by adding HPR-labeled goat anti-human IgG Fc and TMB solution, the reaction was stopped with concentrated sulfuric acid and the absorbance was read at 450 nm.

[3] = biological target: T2, human CD3εγ-Fc heterodimer; assay: SPR (Biacore T200), antigen amine-coupled on CM5 chip, antibody as analyte, 1:1 model
Protocol: 10 μg/mL human or cynomolgus monkey BCMA or CD3εγ recombinant antigen was bound to a CM5 chip (GE healthcare) by amino conjugating, while the amount of antigen bound was controlled to approximately 200 RU. After baseline plateau, gradient diluted antibodies (7 gradients of 2-fold dilutions from 10 μg/mL) were flowed through the chip at a flow rate of 30 μL/min for a binding time of 350 seconds and a dissociation time of 600 seconds. Kinetic constants were fitted using Biacore T200 evaluation software with a 1:1 binding model.

[4] = biological target: T1, human CD3 on T cells (Jurkat cells; …); assay: flow cytometry on human peripheral blood CD4+ T-cells
Protocol: Fresh human peripheral blood was taken and PBMC was isolated by Ficoll. Paque Plu (GE, 17-1440-03). PBMC was adjusted to 5×10⁵ cells/mL with 4% calf serum (Hyclone, SH30626.06), 100 μL/well was added to a 96-well U-plate, the supernatant was centrifuged off and 100 μL of gradient diluted antibody (with starting concentration of 1800 nM, 3-fold dilution, 10 gradients) was added to each well and incubated for 60 min at 4° C. 50 μL/well of Alexa Fluro647 labeled goat anti-human IgG Fc (1:300 dilution) was added to the secondary antibody, with ice bath for 20 min, and 50 μL/well PI added after washing once, incubated for 5 min, and flow cytometer (BD C6) was used for detection. The control antibody REGN5458 was synthesized and prepared according to US20200024356.

| Binder | affinity (FACS) [1] [nM] | affinity (ELISA) [2] [nM] | Kd [3] [nM] | EC50 [4] [nM] |
| --- | --- | --- | --- | --- |
| B1 | 10 | 0.6 | – | – |
| B2 | 7 | 0.49 | – | – |
| B3 | 15 | 0.65 | – | – |
| B4 | – | 0.7 | – | – |
| B5 | – | 0.74 | – | – |
| B6 | – | – | 31 | 89 |
| B7 | – | – | 28 | – |
| B8 | – | – | 27 | – |
